In article PMC3317225, “MsDpo4—a DinB Homolog from Mycobacterium smegmatis—Is an Error-Prone DNA Polymerase That Can Promote G:T and T:G Mismatches” (Journal of Nucleic Acids, 2012) one finds Km data, which are given here for 1 protein.

Assay in all cases: steady-state primer extension, 6-FAM labelled primer, gel, Lineweaver-Burk
Holding throughout (assay type): biochemical, Mycolicibacterium smegmatis

Substrate in data set [1]: Nc1ncnc2c1ncn2[C@H]1C[C@H](O)[C@@H](COP(=O)(O)OP(=O)(O)OP(=O)(O)O)O1
Conditions: template dT (correct pair T:A), 20 nM DNA T2P1, 1 nM enzyme, Mg2+, pH 8.0, 37°C (given for the primer extension assay), number in parentheses is standard error. From the text:
(§1) steady-state primer extension, 6-FAM labelled primer, gel, Lineweaver-Burk on MsDpo4

Substrate in data set [2]: Nc1ccn([C@H]2C[C@H](O)[C@@H](COP(=O)(O)OP(=O)(O)OP(=O)(O)O)O2)c(=O)n1
Conditions: template dG (correct pair G:C), 20 nM DNA T1P1, 1 nM enzyme, Mg2+, pH 8.0, 37°C (given for the primer extension assay), number in parentheses is standard error.
From the text: as §1

Substrate in data set [3]: Nc1nc2c(ncn2[C@H]2C[C@H](O)[C@@H](COP(=O)(O)OP(=O)(O)OP(=O)(O)O)O2)c(=O)[nH]1
Conditions: template dT (mismatch T:G, misincorporation), 20 nM DNA T2P1, 10 nM enzyme, Mg2+, pH 8.0, 37°C (given for the primer extension assay), number in parentheses is standard error.
From the text: as §1

Substrate in data set [4]: Cc1cn([C@H]2C[C@H](O)[C@@H](COP(=O)(O)OP(=O)(O)OP(=O)(O)O)O2)c(=O)[nH]c1=O
The note with it: template dG (mismatch G:T, misincorporation), 20 nM DNA T1P1, 10 nM enzyme, Mg2+, pH 8.0, 37°C (given for the primer extension assay), number in parentheses is standard error.
From the text: as §1

B1: MsDpo4 (Mycolicibacterium smegmatis MC2 155) (protein)
chain: MTKWVLHVDLDQFLASVELRRRPDLRGQPVIVGGSGDPSEPRKVVTCASYEAREFGVHAGMPLRAAARRCPDATFLPSDPAAYDEASEQVMGLLRDLGHPLEVWGWDEAYLGADLPDESDPVEVAERIRTVVAAETGLSCSVGISDNKQRAKVATGFAKPAGIYVLTEANWMTVMGDRPPDALWGVGPKTTKKLAAMGITTVADLAVTDPSVLTTAFGPSTGLWLLLLAKGGGDTEVSSEPWVPRSRSHVVTFPQDLTERREMDSAVRDLALQTLAEIVEQGRIVTRVAVTVRTSTFYTRTKIRKLPAPSTDAGQIVDTALAVLDQFELDRPVRLLGVRLELAMDDVPRPAVTAGT
notes: msmeg_1014 in pGEX6P1, expressed as GST-MsDpo4 fusion in bacteria; single-chain Y-family polymerase
As for B1, the Km is 5.5 (1.54) μM in data set [1], 4.3 (0.69) μM in data set [2], 166.5 (39.01) μM in data set [3] and 165.5 (39.70) μM in data set [4].
